Data on one molecule can be found in article PMC9409194, “Salt Dependence of DNA Binding Activity of Human Transcription Factor Dlx3”.

The data set concerns the target Dlx3-HD (human, UniProt O60479 129-188). Nature of the data set: NMR (1H/15N-HSQC CSP and imino proton titration); 100 mM NaCl, 35 C; slow exchange; 10 mM sodium phosphate pH 6.0, 100, 250 or 500 mM NaCl, 90% H2O/10% D2O, 35 C. Conditions: protein: recombinant; tags: Ni-NTA purified (His-tag implied); blunt.

Chain of Dlx3-HD (O60479 129-188): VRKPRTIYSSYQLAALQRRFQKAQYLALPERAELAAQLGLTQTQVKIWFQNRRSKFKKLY

B1: dlxDNA (dsDNA)
DNA 1: CGTAATTGCC
DNA 2: GGCAATTACG
On to B1, for which the binding result was “binds”.
